Experimental data published in article PMC11324726, “Structural dynamics of protein-protein association involved in the light-induced transition of Avena sativa LOV2 protein” (Nature Communications, 2024).

What was measured:
[1] = molecular target: the molecule itself; assay: time-resolved X-ray liquidography (TRXL, TR-SAXS/WAXS); in solution; ns laser pump at 450 nm, X-ray probe; 1.5 mM protein in 20 mM Tris pH 7.0, 200 mM NaCl, 293 K; monomers (I2) to dimer (P); kinetic analysis by SVD and KCA, structural analysis aided by MD
[2] = molecular target: the molecule itself; assay: SEC; light state; monomer and dimer fractions by elution volume; conditions in Supplementary Note 3 and Supplementary Methods (not shown)

Protein	stoichiometry N [1]	stoichiometry N [2]
AsLOV2 (residue 404-546) I427V mutant (domain or fragment, Avena sativa, UniProt O49003 404-546, looked up, Avena sativa phototropin 1, residues 404-546, with I427V (faster photocycle); Carries FMN; Cys-FMN photoadduct in the light state; also called AsLOV2 I427V) LATTLERIEKNFVITDPRLPDNPVIFASDSFLQLTEYSREEILGRNCRFLQGPETDRATVRKIRDAIDNQTEVTVQLINYTKSGKKFWNLFHLQPMRDQKGDVQYFIGVQLDGTEHVRDAAEREGVMLIKKTAENIDEAAKEL	2	–
Avena sativa phototropin 1 LOV2 domain with A'α and Jα helices (residue 404-546), wild type (domain or fragment, UniProt O49003 404-546, looked up, Avena sativa phototropin 1 (AsPhot1), A'α helix (404-412) + LOV2 core (413-520) + Jα helix (521-546), residues 404-546; Carries FMN as chromophore; in the light state a Cys-FMN photoadduct is formed; also called AsLOV2; AsLOV2 WT) LATTLERIEKNFVITDPRLPDNPIIFASDSFLQLTEYSREEILGRNCRFLQGPETDRATVRKIRDAIDNQTEVTVQLINYTKSGKKFWNLFHLQPMRDQKGDVQYFIGVQLDGTEHVRDAAEREGVMLIKKTAENIDEAAKEL	–	2
